# Results taken from IntAct's records for PubMed 19559006.
# B1: Kinesin-like protein KIF21A (Homo sapiens), Q7Z4S6 (parent)
# chain: MLGAPDESSVRVAVRIRPQLAKEKIEGCHICTSVTPGEPQVFLGKDKAFTFDYVFDIDSQQEQIYIQCIEKLIEGCFEGYNATVFAYGQTGAGKTYTMGTGFDVNIVEEELGIISRAVKHLFKSIEEKKHIAIKNGLPAPDFKVNAQFLELYNEEVLDLFDTTRDIDAKSKKSNIRIHEDSTGGIYTVGVTTRTVNTESEMMQCLKLGALSRTTASTQMNVQSSRSHAIFTIHVCQTRVCPQIDADNATDNKIISESAQMNEFETLTAKFHFVDLAGSERLKRTGATGERAKEGISINCGLLALGNVISALGDKSKRATHVPYRDSKLTRLLQDSLGGNSQTIMIACVSPSDRDFMETLNTLKYANRARNIKNKVMVNQDRASQQINALRSEITRLQMELMEYKTGKRIIDEEGVESINDMFHENAMLQTENNNLRVRIKAMQETVDALRSRITQLVSDQANHVLARAGEGNEEISNMIHSYIKEIEDLRAKLLESEAVNENLRKNLTRATARAPYFSGSSTFSPTILSSDKETIEIIDLAKKDLEKLKRKEKRKKKRLQKLEESNREERSVAGKEDNTDTDQEKKEEKGVSERENNELEVEESQEVSDHEDEEEEEEEEEDDIDGGESSDESDSESDEKANYQADLANITCEIAIKQKLIDELENSQKRLQTLKKQYEEKLMMLQHKIRDTQLERDQVLQNLGSVESYSEEKAKKVRSEYEKKLQAMNKELQRLQAAQKEHARLLKNQSQYEKQLKKLQQDVMEMKKTKVRLMKQMKEEQEKARLTESRRNREIAQLKKDQRKRDHQLRLLEAQKRNQEVVLRRKTEEVTALRRQVRPMSDKVAGKVTRKLSSSDAPAQDTGSSAAAVETDASRTGAQQKMRIPVARVQALPTPATNGNRKKYQRKGLTGRVFISKTARMKWQLLERRVTDIIMQKMTISNMEADMNRLLKQREELTKRREKLSKRREKIVKENGEGDKNVANINEEMESLTANIDYINDSISDCQANIMQMEEAKEEGETLDVTAVINACTLTEARYLLDHFLSMGINKGLQAAQKEAQIKVLEGRLKQTEITSATQNQLLFHMLKEKAELNPELDALLGHALQDLDSVPLENVEDSTDEDAPLNSPGSEGSTLSSDLMKLCGEVKPKNKARRRTTTQMELLYADSSELASDTSTGDASLPGPLTPVAEGQEIGMNTETSGTSAREKELSPPPGLPSKIGSISRQSSLSEKKIPEPSPVTRRKAYEKAEKSKAKEQKHSDSGTSEASLSPPSSPPSRPRNELNVFNRLTVSQGNTSVQQDKSDESDSSLSEVHRSSRRGIINPFPASKGIRAFPLQCIHIAEGHTKAVLCVDSTDDLLFTGSKDRTCKVWNLVTGQEIMSLGGHPNNVVSVKYCNYTSLVFTVSTSYIKVWDIRDSAKCIRTLTSSGQVTLGDACSASTSRTVAIPSGENQINQIALNPTGTFLYAASGNAVRMWDLKRFQSTGKLTGHLGPVMCLTVDQISSGQDLIITGSKDHYIKMFDVTEGALGTVSPTHNFEPPHYDGIEALTIQGDNLFSGSRDNGIKKWDLTQKDLLQQVPNAHKDWVCALGVVPDHPVLLSGCRGGILKVWNMDTFMPVGEMKGHDSPINAICVNSTHIFTAADDRTVRIWKARNLQDGQISDTGDLGEDIASN
# partner: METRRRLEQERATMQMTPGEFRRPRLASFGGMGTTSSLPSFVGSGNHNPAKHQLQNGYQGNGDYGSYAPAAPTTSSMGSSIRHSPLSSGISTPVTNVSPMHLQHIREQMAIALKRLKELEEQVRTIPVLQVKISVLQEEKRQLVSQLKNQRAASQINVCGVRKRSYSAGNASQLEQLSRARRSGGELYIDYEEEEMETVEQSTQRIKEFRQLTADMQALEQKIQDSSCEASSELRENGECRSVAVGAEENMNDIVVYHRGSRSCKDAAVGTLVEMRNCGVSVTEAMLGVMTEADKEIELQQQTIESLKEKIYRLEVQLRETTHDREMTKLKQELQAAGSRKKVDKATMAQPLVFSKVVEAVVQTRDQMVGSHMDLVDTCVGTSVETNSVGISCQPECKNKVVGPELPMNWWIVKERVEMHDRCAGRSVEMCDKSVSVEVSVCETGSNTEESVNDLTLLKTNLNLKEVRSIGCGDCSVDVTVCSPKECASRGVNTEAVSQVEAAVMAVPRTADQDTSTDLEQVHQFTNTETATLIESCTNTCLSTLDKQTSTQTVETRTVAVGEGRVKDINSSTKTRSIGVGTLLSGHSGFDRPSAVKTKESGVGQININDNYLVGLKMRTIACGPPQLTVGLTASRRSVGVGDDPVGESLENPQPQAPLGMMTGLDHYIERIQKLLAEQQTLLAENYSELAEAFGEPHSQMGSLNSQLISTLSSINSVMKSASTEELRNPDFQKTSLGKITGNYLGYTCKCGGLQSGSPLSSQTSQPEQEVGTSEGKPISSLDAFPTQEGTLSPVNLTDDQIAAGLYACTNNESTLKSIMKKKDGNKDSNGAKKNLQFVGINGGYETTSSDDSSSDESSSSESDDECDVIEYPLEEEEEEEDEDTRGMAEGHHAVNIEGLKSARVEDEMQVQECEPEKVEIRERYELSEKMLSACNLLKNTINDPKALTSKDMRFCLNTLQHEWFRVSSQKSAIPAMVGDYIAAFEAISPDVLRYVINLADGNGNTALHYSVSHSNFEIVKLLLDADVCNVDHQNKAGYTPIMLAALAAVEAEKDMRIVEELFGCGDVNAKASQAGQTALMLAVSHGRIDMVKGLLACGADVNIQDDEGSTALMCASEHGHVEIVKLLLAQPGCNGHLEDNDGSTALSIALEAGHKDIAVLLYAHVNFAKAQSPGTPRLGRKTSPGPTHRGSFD
# Variants of: B1
# Conditions: with KANK1, Q14678-2
row,effect of a mutation on the interaction,Variant
1,increasing interaction,M947T
2,increasing interaction,R954W
